B1: SNX3 (parent)
chain: FLRQLPFRGDDGIFDDNFIEERKQ

Variants of: B1
Experiment: protein stability index of a GFP-peptide fusion (GPS, HEK-293T) (PSI 1-6); higher = more stable
Conditions: c terminus: a fixed tail appended
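Further: lentivirally expressed fusions sorted by FACS into six bins by GFP to DsRed ratio, PSI derived from sequencing read proportions per bin multiplied by bin number.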

Question: For FLRQLPFRGDDGKFDDNFIEERKQ, which protein stability index is on record?
Answer: 4.7

Question: For FLRQLPFRGDDGYFDDNFIEERKQ, which protein stability index is on record?
Answer: 3.83

Question: For FLRQLPFRGDDGDFDDNFIEERKQ, which protein stability index is on record?
Answer: 4.24

Question: With FLRQLPFRGDDGSFDDNFIEERKQ as the variant, how does the protein stability index read?
Answer: 3.8

Question: For FLRQLPFRGDDGVFDDNFIEERKQ, which protein stability index is on record?
Answer: 3.3

Question: With FLRQLPFRGDDGEFDDNFIEERKQ as the variant, how does the protein stability index read?
Answer: 4

Question: Which protein stability index does the source give for FLRQLPFRGDDGAFDDNFIEERKQ here?
Answer: 4.22

Question: Which protein stability index does the source give for FLRQLPFRGDDGNFDDNFIEERKQ here?
Answer: 3.28

Question: With FLRQLPFRGDDGWFDDNFIEERKQ as the variant, how does the protein stability index read?
Answer: 2.72

Question: For FLRQLPFRGDDGQFDDNFIEERKQ, which protein stability index is on record?
Answer: 4.03

Question: For FLRQLPFRGDDGLFDDNFIEERKQ, which protein stability index is on record?
Answer: 3.26

Question: Which protein stability index does the source give for FLRQLPFRGDDGHFDDNFIEERKQ here?
Answer: 3.67

Question: For FLRQLPFRGDDGMFDDNFIEERKQ, which protein stability index is on record?
Answer: 3.03

Question: Which protein stability index does the source give for FLRQLPFRGDDGFFDDNFIEERKQ here?
Answer: 3.03

Question: For FLRQLPFRGDDGPFDDNFIEERKQ, which protein stability index is on record?
Answer: 4.03

Question: Which protein stability index does the source give for FLRQLPFRGDDGTFDDNFIEERKQ here?
Answer: 3.48

Question: Which protein stability index does the source give for FLRQLPFRGDDGGFDDNFIEERKQ here?
Answer: 3.52

Question: With FLRQLPFRGDDLIFDDNFIEERKQ as the variant, how does the protein stability index read?
Answer: 3.01

Question: For FLRQLPFRGDDVIFDDNFIEERKQ, which protein stability index is on record?
Answer: 3.07

Question: For FLRQLPFRGDDRIFDDNFIEERKQ, which protein stability index is on record?
Answer: 3.1

Question: For FLRQLPFRGDDYIFDDNFIEERKQ, which protein stability index is on record?
Answer: 2.91

Question: For FLRQLPFRGDDTIFDDNFIEERKQ, which protein stability index is on record?
Answer: 3.66

Question: For FLRQLPFRGDDSIFDDNFIEERKQ, which protein stability index is on record?
Answer: 3.21

Question: Which protein stability index does the source give for FLRQLPFRGDDDIFDDNFIEERKQ here?
Answer: 3.67

Question: For FLRQLPFRGDDEIFDDNFIEERKQ, which protein stability index is on record?
Answer: 3.64

Question: Which protein stability index does the source give for FLRQLPFRGDDQIFDDNFIEERKQ here?
Answer: 3.84

Question: Which protein stability index does the source give for FLRQLPFRGDDIIFDDNFIEERKQ here?
Answer: 2.39

Question: With FLRQLPFRGDDFIFDDNFIEERKQ as the variant, how does the protein stability index read?
Answer: 3.03

Question: Which protein stability index does the source give for FLRQLPFRGDDHIFDDNFIEERKQ here?
Answer: 3.77

Question: For FLRQLPFRGDDKIFDDNFIEERKQ, which protein stability index is on record?
Answer: 4.03

Question: Which protein stability index does the source give for FLRQLPFRGDDPIFDDNFIEERKQ here?
Answer: 2.74

Question: For FLRQLPFRGDDAIFDDNFIEERKQ, which protein stability index is on record?
Answer: 3.79

Question: Which protein stability index does the source give for FLRQLPFRGDDWIFDDNFIEERKQ here?
Answer: 2.67

Question: With FLRQLPFRGDDMIFDDNFIEERKQ as the variant, how does the protein stability index read?
Answer: 3.79

Question: With FLRQLPFRGDDCIFDDNFIEERKQ as the variant, how does the protein stability index read?
Answer: 3.03

Question: Which protein stability index does the source give for FLRQLPFRGDDNIFDDNFIEERKQ here?
Answer: 3.23

Question: Which protein stability index does the source give for FLRQLPFRGDDGIFDDNCIEERKQ here?
Answer: 4.21

Question: With FLRQLPFRGDDGIFDDNEIEERKQ as the variant, how does the protein stability index read?
Answer: 4.47

Question: For FLRQLPFRGDDGIFDDNAIEERKQ, which protein stability index is on record?
Answer: 4.56

Question: For FLRQLPFRGDDGIFDDNDIEERKQ, which protein stability index is on record?
Answer: 4.12

Question: Which protein stability index does the source give for FLRQLPFRGDMGIFDDNFIEERKQ here?
Answer: 3.05

Question: With FLRQLPFRGDTGIFDDNFIEERKQ as the variant, how does the protein stability index read?
Answer: 3.37

Question: With FLRQLPFRGDAGIFDDNFIEERKQ as the variant, how does the protein stability index read?
Answer: 4.01

Question: For FLRQLPFRGDYGIFDDNFIEERKQ, which protein stability index is on record?
Answer: 2.32

Question: With FLRQLPFRGDIGIFDDNFIEERKQ as the variant, how does the protein stability index read?
Answer: 2.53

Question: Which protein stability index does the source give for FLRQLPFRGDKGIFDDNFIEERKQ here?
Answer: 3

Question: Which protein stability index does the source give for FLRQLPFRGDQGIFDDNFIEERKQ here?
Answer: 3.16

Question: For FLRQLPFRGDHGIFDDNFIEERKQ, which protein stability index is on record?
Answer: 3.15

Question: Which protein stability index does the source give for FLRQLPFRGDPGIFDDNFIEERKQ here?
Answer: 4.1

Question: With FLRQLPFRGDRGIFDDNFIEERKQ as the variant, how does the protein stability index read?
Answer: 2.46

Question: For FLRQLPFRGDFGIFDDNFIEERKQ, which protein stability index is on record?
Answer: 2.74

Question: For FLRQLPFRGDVGIFDDNFIEERKQ, which protein stability index is on record?
Answer: 4.03

Question: Which protein stability index does the source give for FLRQLPFRGDSGIFDDNFIEERKQ here?
Answer: 4.12

Question: For FLRQLPFRGDGGIFDDNFIEERKQ, which protein stability index is on record?
Answer: 4.22

Question: With FLRQLPFRGDWGIFDDNFIEERKQ as the variant, how does the protein stability index read?
Answer: 1.94

Question: With FLRQLPFRGDNGIFDDNFIEERKQ as the variant, how does the protein stability index read?
Answer: 3.01

Question: For FLRQLPFRGDEGIFDDNFIEERKQ, which protein stability index is on record?
Answer: 2.9

Question: With FLRQLPFRGDCGIFDDNFIEERKQ as the variant, how does the protein stability index read?
Answer: 2.91

Question: For FLRQLPFRGDLGIFDDNFIEERKQ, which protein stability index is on record?
Answer: 2.71

Question: Which protein stability index does the source give for FLRQLPFRGDDGIHDDNFIEERKQ here?
Answer: 4.32

Question: With FLRQLPFRGDDGIQDDNFIEERKQ as the variant, how does the protein stability index read?
Answer: 3.67

Question: With FLRQLPFRGDDGICDDNFIEERKQ as the variant, how does the protein stability index read?
Answer: 3.06

Question: For FLRQLPFRGDDGILDDNFIEERKQ, which protein stability index is on record?
Answer: 3.56

Question: With FLRQLPFRGDDGIKDDNFIEERKQ as the variant, how does the protein stability index read?
Answer: 4.23

Question: With FLRQLPFRGDDGIEDDNFIEERKQ as the variant, how does the protein stability index read?
Answer: 4.56

Question: With FLRQLPFRGDDGIRDDNFIEERKQ as the variant, how does the protein stability index read?
Answer: 3.88

Question: For FLRQLPFRGDDGIIDDNFIEERKQ, which protein stability index is on record?
Answer: 3.76

Question: For FLRQLPFRGDDGISDDNFIEERKQ, which protein stability index is on record?
Answer: 3.87

Question: For FLRQLPFRGDDGIMDDNFIEERKQ, which protein stability index is on record?
Answer: 3.67

Question: For FLRQLPFRGDDGITDDNFIEERKQ, which protein stability index is on record?
Answer: 3.86

Question: Which protein stability index does the source give for FLRQLPFRGDDGIYDDNFIEERKQ here?
Answer: 2.84

Question: For FLRQLPFRGDDGIVDDNFIEERKQ, which protein stability index is on record?
Answer: 3.81

Question: For FLRQLPFRGDDGIDDDNFIEERKQ, which protein stability index is on record?
Answer: 4.79

Question: For FLRQLPFRGDDGIWDDNFIEERKQ, which protein stability index is on record?
Answer: 3.38

Question: For FLRQLPFRGDDGIGDDNFIEERKQ, which protein stability index is on record?
Answer: 4.33

Question: Which protein stability index does the source give for FLRQLPFRGDDGIADDNFIEERKQ here?
Answer: 4.26

Question: Which protein stability index does the source give for FLRQLPFRGDDGIFDRNFIEERKQ here?
Answer: 3.23

Question: With FLRQLPFRGDDGIFDFNFIEERKQ as the variant, how does the protein stability index read?
Answer: 2.56

Question: For FLRQLPFRGDDGIFDHNFIEERKQ, which protein stability index is on record?
Answer: 3.6

Question: With FLRQLPFRGDDGIFDLNFIEERKQ as the variant, how does the protein stability index read?
Answer: 2.91

Question: For FLRQLPFRGDDGIFDTNFIEERKQ, which protein stability index is on record?
Answer: 3.06

Question: With FLRQLPFRGDDGIFDVNFIEERKQ as the variant, how does the protein stability index read?
Answer: 3.45

Question: Which protein stability index does the source give for FLRQLPFRGDDGIFDKNFIEERKQ here?
Answer: 3.86

Question: For FLRQLPFRGDDGIFDMNFIEERKQ, which protein stability index is on record?
Answer: 2.95

Question: With FLRQLPFRGDDGIFDSNFIEERKQ as the variant, how does the protein stability index read?
Answer: 3.53

Question: Which protein stability index does the source give for FLRQLPFRGDDGIFDCNFIEERKQ here?
Answer: 3.05

Question: For FLRQLPFRGDDGIFDGNFIEERKQ, which protein stability index is on record?
Answer: 3.18

Question: Which protein stability index does the source give for FLRQLPFRGDDGIFDWNFIEERKQ here?
Answer: 2.73

Question: Which protein stability index does the source give for FLRQLPFRGDDGIFDYNFIEERKQ here?
Answer: 2.8

Question: Which protein stability index does the source give for FLRQLPFRGDDGIFDANFIEERKQ here?
Answer: 2.62

Question: For FLRQLPFRGDDGIFDINFIEERKQ, which protein stability index is on record?
Answer: 3.19

Question: With FLRQLPFRGDDGIFDNNFIEERKQ as the variant, how does the protein stability index read?
Answer: 2.88

Question: Which protein stability index does the source give for FLRQLPFRGDDGIFDPNFIEERKQ here?
Answer: 3.4

Question: Which protein stability index does the source give for FLRQLPFRGDDGIFDQNFIEERKQ here?
Answer: 3

Reference: the supplement of paper PMC10567573
